IntAct's records for PubMed 29892012

B1: Retinoic acid receptor alpha (Homo sapiens), P10276 (parent)
chain: MASNSSSCPTPGGGHLNGYPVPPYAFFFPPMLGGLSPPGALTTLQHQLPVSGYSTPSPATIETQSSSSEEIVPSPPSPPPLPRIYKPCFVCQDKSSGYHYGVSACEGCKGFFRRSIQKNMVYTCHRDKNCIINKVTRNRCQYCRLQKCFEVGMSKESVRNDRNKKKKEVPKPECSESYTLTPEVGELIEKVRKAHQETFPALCQLGKYTTNNSSEQRVSLDIDLWDKFSELSTKCIIKTVEFAKQLPGFTTLTIADQITLLKAACLDILILRICTRYTPEQDTMTFSDGLTLNRTQMHNAGFGPLTDLVFAFANQLLPLEMDDAETGLLSAICLICGDRQDLEQPDRVDMLQEPLLEALKVYVRKRRPSRPHMFPKMLMKITDLRSISAKGAERVITLKMEIPGSMPPLIQEMLENSEGLDTLSGQPGGGGRDGGGLAPPPGSCSPSLSPSSNRSSPATHSP
partner: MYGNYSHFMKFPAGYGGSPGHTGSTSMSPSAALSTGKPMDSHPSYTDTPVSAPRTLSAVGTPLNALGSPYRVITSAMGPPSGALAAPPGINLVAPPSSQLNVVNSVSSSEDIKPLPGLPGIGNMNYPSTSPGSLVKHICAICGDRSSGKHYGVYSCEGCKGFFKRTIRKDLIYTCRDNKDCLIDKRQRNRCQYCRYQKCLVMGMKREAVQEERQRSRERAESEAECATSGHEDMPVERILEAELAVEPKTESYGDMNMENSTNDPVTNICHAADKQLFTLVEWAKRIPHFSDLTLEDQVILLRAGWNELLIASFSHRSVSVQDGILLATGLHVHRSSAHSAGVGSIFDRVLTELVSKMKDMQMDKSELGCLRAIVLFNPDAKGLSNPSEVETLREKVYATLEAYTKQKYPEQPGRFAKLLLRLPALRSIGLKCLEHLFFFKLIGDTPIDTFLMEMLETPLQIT
B2: Kinetochore protein NDC80 homolog (Homo sapiens), O14777 (parent)
chain: MKRSSVSSGGAGRLSMQELRSQDVNKQGLYTPQTKEKPTFGKLSINKPTSERKVSLFGKRTSGHGSRNSQLGIFSSSEKIKDPRPLNDKAFIQQCIRQLCEFLTENGYAHNVSMKSLQAPSVKDFLKIFTFLYGFLCPSYELPDTKFEEEVPRIFKDLGYPFALSKSSMYTVGAPHTWPHIVAALVWLIDCIKIHTAMKESSPLFDDGQPWGEETEDGIMHNKLFLDYTIKCYESFMSGADSFDEMNAELQSKLKDLFNVDAFKLESLEAKNRALNEQIARLEQEREKEPNRLESLRKLKASLQGDVQKYQAYMSNLESHSAILDQKLNGLNEEIARVELECETIKQENTRLQNIIDNQKYSVADIERINHERNELQQTINKLTKDLEAEQQKLWNEELKYARGKEAIETQLAEYHKLARKLKLIPKGAENSKGYDFEIKFNPEAGANCLVKYRAQVYVPLKELLNETEEEINKALNKKMGLEDTLEQLNAMITESKRSVRTLKEEVQKLDDLYQQKIKEAEEEDEKCASELESLEKHKHLLESTVNQGLSEAMNELDAVQREYQLVVQTTTEERRKVGNNLQRLLEMVATHVGSVEKHLEEQIAKVDREYEECMSEDLSENIKEIRDKYEKKATLIKSSEE
partner: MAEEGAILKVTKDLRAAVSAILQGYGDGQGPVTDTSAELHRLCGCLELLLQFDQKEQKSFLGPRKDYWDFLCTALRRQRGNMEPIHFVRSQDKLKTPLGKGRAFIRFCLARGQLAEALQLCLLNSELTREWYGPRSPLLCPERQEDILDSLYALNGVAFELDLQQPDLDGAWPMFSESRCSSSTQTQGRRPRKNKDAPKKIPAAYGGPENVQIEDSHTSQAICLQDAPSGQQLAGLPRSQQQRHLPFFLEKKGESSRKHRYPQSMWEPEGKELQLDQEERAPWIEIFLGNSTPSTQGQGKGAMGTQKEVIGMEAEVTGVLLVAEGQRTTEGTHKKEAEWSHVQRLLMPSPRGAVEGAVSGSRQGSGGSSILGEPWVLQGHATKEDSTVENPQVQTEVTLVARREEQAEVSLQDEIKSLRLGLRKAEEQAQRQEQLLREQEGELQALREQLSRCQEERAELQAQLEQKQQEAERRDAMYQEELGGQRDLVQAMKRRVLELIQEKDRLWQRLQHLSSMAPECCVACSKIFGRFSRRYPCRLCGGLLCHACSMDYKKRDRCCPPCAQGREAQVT
B3: Coiled-coil domain-containing protein 120 (Homo sapiens), Q96HB5-4 (parent)
chain: MRREPRYQGQVGPDIHTDSERTLSSHQPRPLDSTKMEVKGQLISSPTFNAPAALFGEAAPQVKSERLRGLLDRQRTLQEALSLKLQELRKVCLQEAELTGQLPPECPLEPGERPQLVRRRPPTARAYPPPHPNQAHHSLCPAEELALEALEREVSVQQQIAAAARRLALAPDLSTEQRRRRRQVQADALRRLHELEEQLRDVRARLGLPVLPLPQPLPLSTGSVITTQGVCLGMRLAQLSQEDVVLHSESSSLSESGASHDNEEPHGCFSLAERPSPPKAWDQLRAVSGGSPERRTPWKPPPSDLYGDLKSRRNSVASPTSPTRSLPRSASSFEGRSVPATPVLTRGAGPQLCKPEGLHSRQWSGSQDSQMGFPRADPASDRASLFVARTRRSNSSEALLVDRAAGGGAGSPPAPLAPSASGPPVCKSSEVLYERPQPTPAFSSRTAGPPDPPRAARPSSAAPASRGAPRLPPVCGDFLLDYSLDRGLPRSGGGTGWGELPPAAEVPGPLSRRDGLLTMLPGPPPVYAADSNSPLLRTKDPHTRATRTKPCGLPPEAAEGPEVHPNPLLWMPPPTRIPSAGERSGHKNLALEGLRDWYIRNSGLAAGPQRRPVLPSVGPPHPPFLHARCYEVGQALYGAPSQAPLPHSRSFTAPPVSGRYYADFLYPPELSARLSDLTLEGEQSSSSDTQTPGTLV
B4: Vacuolar protein-sorting-associated protein 25 (Homo sapiens), Q9BRG1 (parent)
chain: MAMSFEWPWQYRFPPFFTLQPNVDTRQKQLAAWCSLVLSFCRLHKQSSMTVMEAQESPLFNNVKLQRKLPVESIQIVLEELRKKGNLEWLDKSKSSFLIMWRRPEEWGKLIYQWVSRSGQNNSVFTLYELTNGEDTEDEEFHGLDEATLLRALQALQQEHKAEIITVSDGRGVKFF
partner: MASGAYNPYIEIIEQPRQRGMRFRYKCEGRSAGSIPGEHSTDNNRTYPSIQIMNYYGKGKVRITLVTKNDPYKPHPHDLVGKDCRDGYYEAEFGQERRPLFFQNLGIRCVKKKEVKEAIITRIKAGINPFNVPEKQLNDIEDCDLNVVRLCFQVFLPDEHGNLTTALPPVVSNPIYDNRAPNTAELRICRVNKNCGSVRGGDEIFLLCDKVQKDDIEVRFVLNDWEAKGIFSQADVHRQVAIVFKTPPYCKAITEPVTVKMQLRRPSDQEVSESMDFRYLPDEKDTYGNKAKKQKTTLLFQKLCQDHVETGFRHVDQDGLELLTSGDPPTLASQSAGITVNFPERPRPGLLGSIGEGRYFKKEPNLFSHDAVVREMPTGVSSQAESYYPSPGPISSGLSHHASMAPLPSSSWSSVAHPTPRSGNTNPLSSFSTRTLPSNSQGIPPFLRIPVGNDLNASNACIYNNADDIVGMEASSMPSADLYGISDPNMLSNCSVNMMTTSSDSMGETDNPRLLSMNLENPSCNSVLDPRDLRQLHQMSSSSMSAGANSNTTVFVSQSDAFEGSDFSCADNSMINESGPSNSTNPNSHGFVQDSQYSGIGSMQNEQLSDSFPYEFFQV
B5: Synaptotagmin-16 (Homo sapiens), Q17RD7 (parent)
chain: MVLAMASQDVQNFFQPFSSWISRVYEALQQAGDMLSASLVNISKQDSKLSDKLDQDLDNIQIQETYFEDEEQDNDWSQEDANSLFLEVDHFSCCNSDLQDSAQNSSPSLSQHAKDSCSTMSQWPNWASDDRKLPHVLSSIAEEEHHLEKQRSGLQHGFDSQLPGTLETVNGKKQVNSFGDDEELSTSSDSDEEVIKQFEISVSRSQSFRSVTSEKGKQTGLEQKPKFSRSLLTHGEDGTEVSACEDLDGASQRRYSENLSYGEDDHIPAHSQSPCERGDAKHHGTSHQESSVVQSLRRQSTEGSLEMETAFNSRGFEDSYATDSSSMWSPEEQDRTNLQVPSGVSEPISKCGDLDVIFEYRAASQKLTVTIVRAQGLPDKDRSGVNSWQVHVVLLPGKKHRGRTNIQRGPNPVFREKVTFAKLEPRDVAACAVRFRLYAARKMTRERMMGEKLFYLSHLHPEGEMKVTLVLEPRSNISSGGSPLSPSAVSHSDSTSSTQSLSHGGAPELLVGLSYNATTGRLSVEMIKGSHFRNLAVNRAPDTYGKLFLLNSVGQEMSRCKTSIRRGQPNPVYKETFVFQVALFQLSDVTLMISVYNRRTMKRKEMIGWIALGQNSSGEEEQDHWEEMKETKGQQICRWHTLLES
B6: FAST kinase domain-containing protein 5, mitochondrial (Homo sapiens), Q7L8L6 (parent)
chain: MAATLKSLKLVRYRAFCSPSAFGAVRSVSYWNVSSTQHGGQDPPEHISLCHSAKKVKNICSTFSSRRILTTSSAHPGLEFSKTSSSKASTLQLGSPRATGVDEEDVEVFDSFENMRVFLQLRPEYRVHSYNASETSQLLSVSEGELILHKVRVNQNNLQAQVIVDYLCKLSSLPAEQHPVLLGSTSFALLCQLSVKKIQLFDTQDLINVLKAFVILGIPHSHSMLDVYETKCCHQVWEMNMDQLLLVADLWRYLGRKVPRFLNIFSSYLNLHWKDLSLSQLVHLIYVIGENRQVSQDLMQKLESLILKYIDLINLEEVGTICLGFFKSSTNLSEFVMRKIGDLACANIQHLSSRSLVNIVKMFRFTHVDHINFMKQIGEIAPQRIPSLGVQGVMHLTLYCSALRFLNEGVMNAVAASLPPRVAHCRSKDVAKILWSFGTLNYKPPNAEEFYSSLISEIHRKMPEFNQYPEHLPTCLLGLAFLEYFPVELIDFALSPGFVRLAQERTKFDLLKELYTLDGTVGIECPDYRGNRLSTHLQQEGSELLWYLAEKDMNSKPEFLETVFLLETMLGGPQYVKHHMILPHTRSSDLEVQLDVNLKPLPFNREATPAENVAKLRLEHVGVSLTDDLMNKLLKGKARGHFQGKTESEPGQQPMELENKAAVPLGGFLCNVADKSGAMEMAGLCPAACMQTPRMKLAVQFTNRNQYCYGSRDLLGLHNMKRRQLARLGYRVVELSYWEWLPLLKRTRLEKLAFLHEKVFTSAL
partner: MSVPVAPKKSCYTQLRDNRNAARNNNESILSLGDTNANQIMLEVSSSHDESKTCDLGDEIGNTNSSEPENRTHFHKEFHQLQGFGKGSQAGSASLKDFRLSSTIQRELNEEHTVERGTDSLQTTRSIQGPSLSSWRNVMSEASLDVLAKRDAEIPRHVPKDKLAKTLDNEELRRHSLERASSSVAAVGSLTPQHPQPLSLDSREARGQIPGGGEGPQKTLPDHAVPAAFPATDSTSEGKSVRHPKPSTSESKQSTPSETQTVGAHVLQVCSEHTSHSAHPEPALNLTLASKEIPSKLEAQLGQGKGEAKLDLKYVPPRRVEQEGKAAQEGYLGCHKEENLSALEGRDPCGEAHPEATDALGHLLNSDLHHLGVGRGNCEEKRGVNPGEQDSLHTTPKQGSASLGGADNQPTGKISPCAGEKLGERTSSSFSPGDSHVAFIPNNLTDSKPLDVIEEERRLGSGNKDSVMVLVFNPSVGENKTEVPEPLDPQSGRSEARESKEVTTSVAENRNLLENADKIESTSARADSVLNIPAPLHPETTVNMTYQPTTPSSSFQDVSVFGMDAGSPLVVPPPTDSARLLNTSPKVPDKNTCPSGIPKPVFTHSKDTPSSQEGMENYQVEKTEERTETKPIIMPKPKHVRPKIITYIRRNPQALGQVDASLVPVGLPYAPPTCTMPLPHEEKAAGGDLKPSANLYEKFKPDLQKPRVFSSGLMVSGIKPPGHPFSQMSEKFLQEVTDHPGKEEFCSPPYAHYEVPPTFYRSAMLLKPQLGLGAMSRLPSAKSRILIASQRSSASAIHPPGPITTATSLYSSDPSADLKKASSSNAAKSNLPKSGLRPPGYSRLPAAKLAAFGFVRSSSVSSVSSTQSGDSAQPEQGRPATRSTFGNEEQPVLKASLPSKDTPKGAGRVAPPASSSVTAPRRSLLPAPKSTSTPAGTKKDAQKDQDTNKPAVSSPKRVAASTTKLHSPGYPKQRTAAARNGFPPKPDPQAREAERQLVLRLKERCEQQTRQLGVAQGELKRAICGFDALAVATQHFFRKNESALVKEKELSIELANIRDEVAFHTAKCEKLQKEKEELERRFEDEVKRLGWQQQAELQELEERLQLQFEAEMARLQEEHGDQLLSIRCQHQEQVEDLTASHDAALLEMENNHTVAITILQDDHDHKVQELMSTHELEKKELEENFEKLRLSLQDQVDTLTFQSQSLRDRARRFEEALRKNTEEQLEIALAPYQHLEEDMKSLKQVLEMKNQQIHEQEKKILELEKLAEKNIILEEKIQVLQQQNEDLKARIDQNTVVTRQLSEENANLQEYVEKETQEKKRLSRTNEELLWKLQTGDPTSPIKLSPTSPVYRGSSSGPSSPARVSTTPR

Variants of: B1
Details: with rxrg_human RXRG

effect of a mutation on the interaction	Variant
disrupting interaction strength	P375L

Variants of: B2
Details: with rufy4_human RUFY4, Q6ZNE9

effect of a mutation on the interaction	Variant
with no effect	K288E

Variants of: B3
Details: with cyh2_human CYTH2, Q99418
Chain of cyh2_human CYTH2, Q99418 (Q99418 whole entry): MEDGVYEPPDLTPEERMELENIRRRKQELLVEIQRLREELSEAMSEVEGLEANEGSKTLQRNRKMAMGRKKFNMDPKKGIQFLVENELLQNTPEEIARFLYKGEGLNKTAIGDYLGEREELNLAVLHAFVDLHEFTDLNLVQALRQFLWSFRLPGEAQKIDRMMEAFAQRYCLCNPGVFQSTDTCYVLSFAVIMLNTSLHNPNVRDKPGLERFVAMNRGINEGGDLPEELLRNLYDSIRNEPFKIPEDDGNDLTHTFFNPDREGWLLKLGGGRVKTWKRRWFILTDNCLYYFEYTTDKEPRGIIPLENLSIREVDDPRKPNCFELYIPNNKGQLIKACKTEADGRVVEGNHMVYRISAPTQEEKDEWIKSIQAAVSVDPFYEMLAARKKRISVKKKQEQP

effect of a mutation on the interaction	Variant
with no effect	R346W

Variants of: B3
Details: with mdfi_human MDFI

effect of a mutation on the interaction	Variant
with no effect	R346W

Variants of: B3
Details: with k1h1_human KRT31, Q15323
Chain of k1h1_human KRT31, Q15323 (Q15323 whole entry): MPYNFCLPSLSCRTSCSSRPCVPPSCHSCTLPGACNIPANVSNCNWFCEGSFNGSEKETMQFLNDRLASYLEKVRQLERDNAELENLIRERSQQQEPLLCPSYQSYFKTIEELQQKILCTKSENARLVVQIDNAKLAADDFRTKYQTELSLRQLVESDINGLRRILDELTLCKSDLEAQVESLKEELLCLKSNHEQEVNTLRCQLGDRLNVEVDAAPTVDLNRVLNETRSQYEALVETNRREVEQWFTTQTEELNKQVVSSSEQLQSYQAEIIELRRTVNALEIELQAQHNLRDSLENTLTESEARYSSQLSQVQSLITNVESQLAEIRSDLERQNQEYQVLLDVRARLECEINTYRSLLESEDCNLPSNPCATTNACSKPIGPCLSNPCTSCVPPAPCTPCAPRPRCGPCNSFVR

effect of a mutation on the interaction	Variant
with no effect	R346W

Variants of: B3
Details: with KRT15, P19012
Chain of KRT15, P19012 (P19012 whole entry): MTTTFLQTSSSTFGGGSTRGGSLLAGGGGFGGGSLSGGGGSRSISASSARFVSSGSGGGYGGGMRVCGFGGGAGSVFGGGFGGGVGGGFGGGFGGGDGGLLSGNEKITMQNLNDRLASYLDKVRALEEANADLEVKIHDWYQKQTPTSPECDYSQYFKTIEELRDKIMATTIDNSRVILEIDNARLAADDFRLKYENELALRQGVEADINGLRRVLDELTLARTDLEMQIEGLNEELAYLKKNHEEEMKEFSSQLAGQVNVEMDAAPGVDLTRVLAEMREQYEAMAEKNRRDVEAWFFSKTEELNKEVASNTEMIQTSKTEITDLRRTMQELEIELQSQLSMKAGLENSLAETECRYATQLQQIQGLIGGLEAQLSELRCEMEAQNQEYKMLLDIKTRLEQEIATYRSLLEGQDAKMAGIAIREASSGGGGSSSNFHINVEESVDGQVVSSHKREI

effect of a mutation on the interaction	Variant
with no effect	R346W

Variants of: B4
Details: with rel_human REL

effect of a mutation on the interaction	Variant
disrupting interaction strength	P58Q

Variants of: B5
Details: with praf1_human RABAC1, Q9UI14
Chain of praf1_human RABAC1, Q9UI14 (Q9UI14 whole entry): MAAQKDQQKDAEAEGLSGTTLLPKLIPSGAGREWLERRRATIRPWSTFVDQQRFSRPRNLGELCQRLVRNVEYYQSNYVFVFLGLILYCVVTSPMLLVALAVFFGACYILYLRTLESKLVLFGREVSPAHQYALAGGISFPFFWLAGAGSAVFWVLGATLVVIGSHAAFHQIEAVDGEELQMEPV

effect of a mutation on the interaction	Variant
with no effect	R441W

Variants of: B5
Details: with rtn4_human RTN4, Q9NQC3
Chain of rtn4_human RTN4, Q9NQC3 (Q9NQC3 whole entry): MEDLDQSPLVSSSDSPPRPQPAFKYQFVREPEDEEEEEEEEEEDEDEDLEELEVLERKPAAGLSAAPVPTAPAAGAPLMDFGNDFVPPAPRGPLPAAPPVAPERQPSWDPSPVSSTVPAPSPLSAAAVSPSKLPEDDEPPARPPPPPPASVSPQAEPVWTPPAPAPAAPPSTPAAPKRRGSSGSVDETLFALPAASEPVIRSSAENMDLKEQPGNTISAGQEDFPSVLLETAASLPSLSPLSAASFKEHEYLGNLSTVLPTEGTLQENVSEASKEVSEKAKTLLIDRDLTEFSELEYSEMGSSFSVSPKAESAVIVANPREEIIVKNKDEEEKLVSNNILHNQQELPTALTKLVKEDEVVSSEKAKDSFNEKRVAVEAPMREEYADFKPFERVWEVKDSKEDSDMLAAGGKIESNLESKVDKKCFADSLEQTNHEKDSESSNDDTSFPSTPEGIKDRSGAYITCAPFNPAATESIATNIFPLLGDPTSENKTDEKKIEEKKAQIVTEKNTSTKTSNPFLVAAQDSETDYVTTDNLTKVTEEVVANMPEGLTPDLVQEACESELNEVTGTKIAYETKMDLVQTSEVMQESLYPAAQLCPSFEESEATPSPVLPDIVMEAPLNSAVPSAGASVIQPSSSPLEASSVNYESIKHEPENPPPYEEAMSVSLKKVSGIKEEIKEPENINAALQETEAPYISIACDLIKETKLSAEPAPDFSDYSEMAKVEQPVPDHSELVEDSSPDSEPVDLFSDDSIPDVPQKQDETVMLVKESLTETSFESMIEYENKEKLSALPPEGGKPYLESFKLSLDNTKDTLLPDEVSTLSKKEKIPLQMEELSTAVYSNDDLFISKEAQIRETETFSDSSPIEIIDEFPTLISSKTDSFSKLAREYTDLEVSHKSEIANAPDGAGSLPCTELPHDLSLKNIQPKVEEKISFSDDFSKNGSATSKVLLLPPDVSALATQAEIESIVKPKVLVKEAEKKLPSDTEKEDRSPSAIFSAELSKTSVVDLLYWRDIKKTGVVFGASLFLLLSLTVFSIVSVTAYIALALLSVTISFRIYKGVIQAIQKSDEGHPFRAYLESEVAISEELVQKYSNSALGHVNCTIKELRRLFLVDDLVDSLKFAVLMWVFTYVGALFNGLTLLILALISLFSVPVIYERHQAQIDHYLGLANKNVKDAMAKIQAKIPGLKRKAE

effect of a mutation on the interaction	Variant
with no effect	R441W

Variants of: B6
Details: with mtus2_human MTUS2, Q5JR59

effect of a mutation on the interaction	Variant
with no effect	E483D
